Results taken from US20020168358A1, “Treatment of T-cell mediated diseases” (priority 2001, published 2002).

B1: MIP-3β: chemokine, macrophage inflammatory protein-3b, ligand of the CCR7 receptor (protein, UniProt Q99731 22-98, looked up)
C-C motif chemokine 19: GTNDAEDCCLSVTQKPIPGYIVRNFHYLLIKDGCRVPAVVFTTLRGRQLCAPPDQPWVERIIQRLQRTSAKMKRRSS
B2: SLC: secondary lymphoid organ chemokine, ligand of the CCR7 receptor (protein, UniProt O00585 24-134, looked up)
C-C motif chemokine 21: SDGGAQDCCLKYSQRKIPAKVVRSYRKQEPSLGCSIPAILFLPRKRSQAELCADPKELWVQQLMQHLDKTPSPQKPAQGCRKDRGASKTGKKGKGSKGCKRTERSQTPKGP
B3: MIP-1β: chemokine tested for comparison in T cell chemotaxis (protein, UniProt P13236 24-92, looked up)
C-C motif chemokine 4: APMGSDPPTACCFSYTARKLPRNFVVDYYETSSLCSQPAVVFQTKRSKQVCADPSESWVQEYVYDLELN
B4: Tarc: chemokine tested for comparison in T cell chemotaxis (protein, UniProt Q92583 24-94, looked up)
C-C motif chemokine 17: ARGTNVGRECCLEYFKGAIPLRKLKTWYQTSEDCSRDAIVFVTVQGRAICSDPNNKRVKNAVKYLQSLERS
B5: RANTES: chemokine tested for comparison in T cell chemotaxis (protein, UniProt P13501 24-91, looked up)
C-C motif chemokine 5: SPYSSDTTPCCFAYIARPLPRAHIKEYFYTSGKCSNPAVVFVTRKNRQVCANPEKKWVREYINSLEMS
B6: MIP-1α: chemokine tested for comparison in T cell chemotaxis (protein, UniProt P10147 24-92, looked up)
C-C motif chemokine 3: SLAADTPTACCFSYTSRQIPQNFIADYFETSSQCSKPGVIFLTKRSRQVCADPSEEWVQKYVSDLELSA

Experiments:
[1] = target: T1, CCR7 (Homo sapiens, UniProt P32248); experiment: Binding assay: 125I-MIP-3β binding to HUT-78 cell membranes (scintillation proximity); settings: binding assay of Example 1, HUT-78 membranes, read-out: IC50, inhibition of binding of MIP-3β to CCR7
T1 construct: The cells were then disrupted with a Polytron homogenizer and centrifuged at 30,000× g for 10 min; endogenous in cells; host or cells: HUT-78 cells (membrane pellet)
T1 sequence (P32248 25-378): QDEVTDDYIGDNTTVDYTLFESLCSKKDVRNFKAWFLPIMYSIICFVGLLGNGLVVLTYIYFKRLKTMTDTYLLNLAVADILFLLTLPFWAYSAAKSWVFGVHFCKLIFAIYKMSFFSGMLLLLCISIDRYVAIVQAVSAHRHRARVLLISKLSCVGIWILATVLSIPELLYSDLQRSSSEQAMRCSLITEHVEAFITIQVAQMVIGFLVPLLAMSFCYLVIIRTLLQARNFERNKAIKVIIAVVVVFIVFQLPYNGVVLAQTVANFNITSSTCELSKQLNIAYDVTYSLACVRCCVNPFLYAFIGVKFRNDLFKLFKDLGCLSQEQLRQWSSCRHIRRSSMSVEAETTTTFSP
Experimental: HUT-78 cells were cultured in RPMI media with 10% FBS, pen-strep (100 u/ml), L-glutamine (2 mM), HEPES (10 mM) and non-essential amino acids (0.1 mM). The cells were collected by centrifugation at 170× g for 5 min and resuspended to 50×10^ 6 cells/ml in Dulbeccoco's Ca^2+ and Mg^2+ free media containing 8 mg/l aprotinin at 4° C. The cells were then disrupted with a Polytron homogenizer and centrifuged at 30,000× g for 10 min. The pellet was washed 6 times and stored at −80° C.
The binding assay was run in a buffer containing HEPES (50 mM), CaCl2 (1 mM), MgCl2 (5 mM), NaCl (150 mM) and BSA (0.5 mg/ml), pH 7.2. The pellet was resuspended to 8×10^6 cell equivalents/ml and 50 μl was added to microtiter plate wells containing 130 μl of buffer with various concentrations of compounds, and 0.5 mg PEI-treated wheatgerm agglutinin-coated scintillation proximity beads (Amersham). The binding was initiated by the addition of 20 μl of 600 pM ^125I-MIP-3β (New England Nuclear). The microtiter plate was mixed and then the beads were allowed to settle overnight before counting in a Microbeta plus liquid scintillation counter (Wallac).

[2] = system: PHA-activated human T cells; experiment: In vitro chemotaxis of T cells (48-well Boyden chamber); type: cell-based; settings: for effect on T cell chemotaxis compared with other chemokines: Hut 78 and primary T cells; for chemoattractant activity for PHA-activated human T cells: FIG. 3
Experimental: Lymphocyte and PHA blast chemotaxis to appropriate chemokine was measured using a 48-well Boyden chamber (Neuro Probe Inc., Cabin John, Md.). Agonists were diluted in RPMI media (BioWhittaker, Walkersville, Md.) containing 0.1% bovine serum albumin (Invitrogen, Carlsbad, Calif.) and added to the bottom wells of the chemotaxis chamber. Peripheral mononuclear blood cells were resuspended in RPMI/BSA media at a concentration of 2.5×10^6 cells per ml. Fifty μl of this cell suspension was then added to the upper chamber. A 5 μm PVP-free polycarbonate filter, coated on the bottom with 10 microgram/ml of human type IV collagen (Neuro Probe Inc.), was used to separate the wells of the chamber Chambers were incubated for 60 minutes in a 5% CO2-humidified atmosphere at 37° C. After the incubation period, the filters were removed, the top side was scraped to remove non-migrating cells, and the filters were stained with Diff-Quik stain (Dade Behring AG, Dudingen, Switzerland). The number of PMBC cells migrating was counted by light microscopy. The mean of three high powered fields was then determined. The number of migrating PMBC cells was calculated by subtracting […].

[3] = system: Hut-78 cells; experiment: In vitro chemotaxis of Hut-78 cells; type: cell-based; settings: FIG. 2

Molecule	effect on T cell chemotaxis compared with other chemokines [2]	also measured
O=S1(=O)COc2cc(NCCCc3cnco3)ccc2N1 [Example 3]		IC50 [1]: 1500 nM
Cc1cc(C)c2c(=O)n(CC(O)CN(C)CC3OCCCO3)sc2c1 (stereo not drawn) [Example 4]		IC50 [1]: 2200 nM
IP-10: chemokine tested for comparison in T cell chemotaxis	minimal effects	
MCP-1: chemokine tested for comparison in T cell chemotaxis	minimal effects	
MCP-3: chemokine tested for comparison in T cell chemotaxis	minimal effects	
B1	most potent T cell chemotactic agents	chemoattractant activity for Hut-78 cells [3]: potent chemoattractants; chemoattractant activity for PHA-activated human T cells [2]: potent chemoattractants
B2	most potent T cell chemotactic agents	chemoattractant activity for Hut-78 cells [3]: potent chemoattractants; chemoattractant activity for PHA-activated human T cells [2]: potent chemoattractants
B3	minimal effects	
B4	minimal effects	
B5	minimal effects	
B6	minimal effects	
